What all share (assay): SPR, KD relative to WT C2;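 further: biacore SPR at 37 °C, anti-C2 mAbs captured via immobilised goat anti-human IgG, C2 alanine or serine surface mutants as analytes, 1:1 model fitted, double-referenced sensograms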
(In SPR one partner is held on a chip, and binding of the other changes the refractive index at the surface.)

For one assay, the target named is T1, human C2 S713A (human, UniProt P06681 21-752).
T1 sequence: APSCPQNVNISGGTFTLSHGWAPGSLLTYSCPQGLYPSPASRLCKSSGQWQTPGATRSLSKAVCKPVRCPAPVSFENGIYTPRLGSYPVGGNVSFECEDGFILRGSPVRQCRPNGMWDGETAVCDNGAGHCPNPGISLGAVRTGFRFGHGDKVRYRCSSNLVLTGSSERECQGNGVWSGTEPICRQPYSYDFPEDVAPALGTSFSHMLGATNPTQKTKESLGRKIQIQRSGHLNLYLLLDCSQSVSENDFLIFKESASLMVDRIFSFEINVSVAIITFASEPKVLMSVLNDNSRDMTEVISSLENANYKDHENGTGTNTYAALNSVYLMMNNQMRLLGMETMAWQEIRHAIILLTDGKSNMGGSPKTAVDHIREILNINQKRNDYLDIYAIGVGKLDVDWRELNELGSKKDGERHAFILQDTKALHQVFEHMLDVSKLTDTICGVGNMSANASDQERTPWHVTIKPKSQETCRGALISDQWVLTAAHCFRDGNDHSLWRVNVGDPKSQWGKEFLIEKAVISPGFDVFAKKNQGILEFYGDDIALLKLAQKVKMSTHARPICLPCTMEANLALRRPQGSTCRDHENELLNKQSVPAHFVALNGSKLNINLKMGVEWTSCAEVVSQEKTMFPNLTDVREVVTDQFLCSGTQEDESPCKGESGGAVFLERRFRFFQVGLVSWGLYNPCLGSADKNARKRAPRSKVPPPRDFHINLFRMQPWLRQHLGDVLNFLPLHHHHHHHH

Another assay has as its target T2, human C2 T317A (human, UniProt P06681 21-752).
T2 sequence: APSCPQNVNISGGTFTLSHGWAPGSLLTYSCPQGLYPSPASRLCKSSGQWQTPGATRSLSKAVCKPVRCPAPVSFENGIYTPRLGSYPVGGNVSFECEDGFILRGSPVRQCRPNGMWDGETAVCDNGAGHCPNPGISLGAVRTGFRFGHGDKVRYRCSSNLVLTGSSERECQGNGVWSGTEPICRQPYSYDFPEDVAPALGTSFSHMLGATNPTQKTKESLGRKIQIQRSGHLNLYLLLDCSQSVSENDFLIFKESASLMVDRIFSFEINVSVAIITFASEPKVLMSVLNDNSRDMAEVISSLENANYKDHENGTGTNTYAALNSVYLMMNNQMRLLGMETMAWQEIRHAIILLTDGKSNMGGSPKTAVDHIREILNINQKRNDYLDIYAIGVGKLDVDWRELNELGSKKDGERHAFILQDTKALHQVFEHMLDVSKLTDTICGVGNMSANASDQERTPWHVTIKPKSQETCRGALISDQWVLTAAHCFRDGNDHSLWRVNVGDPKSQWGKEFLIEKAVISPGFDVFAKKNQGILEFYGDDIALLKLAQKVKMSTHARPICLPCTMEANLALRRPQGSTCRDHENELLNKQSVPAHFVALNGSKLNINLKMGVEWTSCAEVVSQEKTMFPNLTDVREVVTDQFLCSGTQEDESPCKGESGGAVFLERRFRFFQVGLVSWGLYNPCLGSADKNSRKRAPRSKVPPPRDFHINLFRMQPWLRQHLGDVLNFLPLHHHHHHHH

The next assay concerns the target T3, human C2 I438A (human, UniProt P06681 21-752).
T3 sequence: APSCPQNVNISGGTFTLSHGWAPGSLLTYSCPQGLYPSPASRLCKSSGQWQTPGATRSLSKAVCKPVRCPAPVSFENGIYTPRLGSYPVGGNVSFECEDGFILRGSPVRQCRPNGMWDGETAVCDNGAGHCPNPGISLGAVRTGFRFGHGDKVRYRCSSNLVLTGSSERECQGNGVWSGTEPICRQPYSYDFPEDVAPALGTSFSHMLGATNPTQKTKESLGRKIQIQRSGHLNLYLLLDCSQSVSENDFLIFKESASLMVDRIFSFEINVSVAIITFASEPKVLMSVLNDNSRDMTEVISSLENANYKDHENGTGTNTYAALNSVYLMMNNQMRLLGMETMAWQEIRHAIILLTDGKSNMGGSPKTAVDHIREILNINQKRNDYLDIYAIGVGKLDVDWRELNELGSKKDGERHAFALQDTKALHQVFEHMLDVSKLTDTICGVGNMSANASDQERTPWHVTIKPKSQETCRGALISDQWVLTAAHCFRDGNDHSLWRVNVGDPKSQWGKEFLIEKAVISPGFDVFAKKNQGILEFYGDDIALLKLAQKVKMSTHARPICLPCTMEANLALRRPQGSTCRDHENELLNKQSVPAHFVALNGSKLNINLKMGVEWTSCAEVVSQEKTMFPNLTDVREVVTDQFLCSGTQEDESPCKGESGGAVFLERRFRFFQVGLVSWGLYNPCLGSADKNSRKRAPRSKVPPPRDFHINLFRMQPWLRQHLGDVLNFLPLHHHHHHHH

The target in a further assay is T4, human C2 G414A (human, UniProt P06681 21-752).
T4 sequence: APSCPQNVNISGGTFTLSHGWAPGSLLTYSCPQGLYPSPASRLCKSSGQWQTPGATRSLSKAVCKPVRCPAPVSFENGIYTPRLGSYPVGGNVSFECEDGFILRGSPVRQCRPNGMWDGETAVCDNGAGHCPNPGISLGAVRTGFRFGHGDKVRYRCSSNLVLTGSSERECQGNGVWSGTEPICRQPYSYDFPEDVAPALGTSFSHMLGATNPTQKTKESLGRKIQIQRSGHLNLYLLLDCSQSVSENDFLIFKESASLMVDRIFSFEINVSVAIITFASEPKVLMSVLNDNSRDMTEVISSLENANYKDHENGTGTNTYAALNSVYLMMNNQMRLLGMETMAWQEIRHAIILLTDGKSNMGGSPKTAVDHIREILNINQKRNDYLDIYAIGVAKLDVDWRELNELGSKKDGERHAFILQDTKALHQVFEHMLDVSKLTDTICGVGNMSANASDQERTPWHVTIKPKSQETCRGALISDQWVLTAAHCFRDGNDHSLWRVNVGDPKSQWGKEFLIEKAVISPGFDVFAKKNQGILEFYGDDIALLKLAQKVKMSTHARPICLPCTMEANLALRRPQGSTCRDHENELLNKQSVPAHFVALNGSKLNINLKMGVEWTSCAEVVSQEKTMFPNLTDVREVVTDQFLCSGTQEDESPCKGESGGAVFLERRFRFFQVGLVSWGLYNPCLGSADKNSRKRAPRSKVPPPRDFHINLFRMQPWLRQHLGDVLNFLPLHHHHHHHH

B1: RF16-226 (antibody, human IgG4 S228P, lambda)
heavy: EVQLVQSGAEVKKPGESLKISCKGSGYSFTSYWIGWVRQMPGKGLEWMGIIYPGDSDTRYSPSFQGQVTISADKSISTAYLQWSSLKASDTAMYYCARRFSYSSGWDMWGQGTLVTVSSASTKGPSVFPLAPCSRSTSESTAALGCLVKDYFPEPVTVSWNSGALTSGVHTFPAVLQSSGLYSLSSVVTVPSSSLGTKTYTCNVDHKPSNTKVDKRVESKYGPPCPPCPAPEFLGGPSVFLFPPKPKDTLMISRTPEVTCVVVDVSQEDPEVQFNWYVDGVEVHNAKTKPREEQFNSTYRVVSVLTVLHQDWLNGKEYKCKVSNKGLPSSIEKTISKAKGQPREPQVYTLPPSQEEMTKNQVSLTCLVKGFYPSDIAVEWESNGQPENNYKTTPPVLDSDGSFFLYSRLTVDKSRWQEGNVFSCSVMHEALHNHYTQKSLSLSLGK
light: SYELTQPPSVSVSPGQTARITCSGDALTSKYVAWYQQKSGLAPLLVIYEDTRRPSGIPAKFSGSSSGSVATLTISGAHGDDEADYYCYSTDASGHQRVFGGGTKLTVLSQPKAAPSVTLFPPSSEELQANKATLVCLISDFYPGAVTVAWKADGSPVKAGVETTKPSKQSNNKYAASSYLSLTPEQWKSHRSYSCQVTHEGSTVEKTVAPTECS
notes: pH-dependent anti-C2 antibody from a phage display library; also called WT
Turning to B1, the Fold diff in the assay with human C2 S713A was found to be 2 fold; in the assay with human C2 T317A it was 1 fold; with human C2 I438A, 1 fold; with human C2 G414A it was 1 fold.
